Experimental data from patent US20140213531A1 (POLYPHOR, published 2014).
Bridges are numbered along the chain shown (N, C = ends). [ ]: non-standard residue; d: D form. Pro(5R-Ph) = O=C(O)[C@@H]1CC[C@H](c2ccccc2)N1

T1: Chymase, from human skin (human, UniProt P23946 22-247)
T1 sequence (looked up): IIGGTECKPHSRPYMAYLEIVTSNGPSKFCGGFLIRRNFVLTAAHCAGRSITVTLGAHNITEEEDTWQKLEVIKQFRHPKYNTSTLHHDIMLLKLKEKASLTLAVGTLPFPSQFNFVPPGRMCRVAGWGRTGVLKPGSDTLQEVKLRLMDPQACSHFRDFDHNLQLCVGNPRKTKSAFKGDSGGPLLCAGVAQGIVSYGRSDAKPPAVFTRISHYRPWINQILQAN

T2: Elastase from human neutrophils (human, UniProt P08246 30-247, limits assumed)
T2 sequence (looked up): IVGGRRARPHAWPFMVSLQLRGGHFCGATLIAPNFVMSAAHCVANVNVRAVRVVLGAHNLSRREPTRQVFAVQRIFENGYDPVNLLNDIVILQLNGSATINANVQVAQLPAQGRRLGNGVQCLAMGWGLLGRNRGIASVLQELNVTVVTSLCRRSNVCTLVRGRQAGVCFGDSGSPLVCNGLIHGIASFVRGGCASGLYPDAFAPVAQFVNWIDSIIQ

T3: CathepsinG, from human neutrophils (human, UniProt P08311 21-244)
T3 sequence (looked up): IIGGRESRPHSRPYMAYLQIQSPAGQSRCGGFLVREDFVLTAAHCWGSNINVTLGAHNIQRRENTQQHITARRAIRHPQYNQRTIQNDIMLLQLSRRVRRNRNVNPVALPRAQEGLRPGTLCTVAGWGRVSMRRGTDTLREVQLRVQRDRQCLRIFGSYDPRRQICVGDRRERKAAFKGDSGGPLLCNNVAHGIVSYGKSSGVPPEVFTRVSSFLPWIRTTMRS

B1: Example 10 (peptide)
peptide: XCTKSDPPICS
HELM: PEPTIDE1{[Nle].C.T.K.S.D.P.P.I.C.S.[dP].P}$PEPTIDE1,PEPTIDE1,2:R3-10:R3|PEPTIDE1,PEPTIDE1,1:R1-13:R2$$$V2.0
SMILES: CCCC[C@@H]1NC(=O)[C@@H]2CCCN2C(=O)[C@H]2CCCN2C(=O)[C@H](CO)NC(=O)[C@@H]2CSSC[C@H](NC1=O)C(=O)N[C@@H]([C@@H](C)O)C(=O)N[C@@H](CCCCN)C(=O)N[C@@H](CO)C(=O)N[C@@H](CC(=O)O)C(=O)N1CCC[C@H]1C(=O)N1CCC[C@H]1C(=O)N[C@@H]([C@@H](C)CC)C(=O)N2
B2: Example 13 (peptide)
peptide: XCTKSDPPICR
HELM: PEPTIDE1{[O=C([C@H](Cc1ccccc1Cl)N[*:1])[*:2]].C.T.K.S.D.P.P.I.C.R.[dP].P}$PEPTIDE1,PEPTIDE1,2:R3-10:R3|PEPTIDE1,PEPTIDE1,1:R1-13:R2$$$V2.0
SMILES: CC[C@H](C)[C@@H]1NC(=O)[C@@H]2CCCN2C(=O)[C@@H]2CCCN2C(=O)[C@H](CC(=O)O)NC(=O)[C@H](CO)NC(=O)[C@H](CCCCN)NC(=O)[C@H]([C@@H](C)O)NC(=O)[C@@H]2CSSC[C@H](NC1=O)C(=O)N[C@@H](CCCNC(=N)N)C(=O)N1CCC[C@@H]1C(=O)N1CCC[C@H]1C(=O)N[C@@H](Cc1ccccc1Cl)C(=O)N2
B3: Example 53 (peptide)
peptide: FCTKSDPPXCS
HELM: PEPTIDE1{F.C.T.K.S.D.P.P.[Nle].C.S.[dP].P}$PEPTIDE1,PEPTIDE1,2:R3-10:R3|PEPTIDE1,PEPTIDE1,1:R1-13:R2$$$V2.0
SMILES: CCCC[C@@H]1NC(=O)[C@@H]2CCCN2C(=O)[C@@H]2CCCN2C(=O)[C@H](CC(=O)O)NC(=O)[C@H](CO)NC(=O)[C@H](CCCCN)NC(=O)[C@H]([C@@H](C)O)NC(=O)[C@@H]2CSSC[C@H](NC1=O)C(=O)N[C@@H](CO)C(=O)N1CCC[C@@H]1C(=O)N1CCC[C@H]1C(=O)N[C@@H](Cc1ccccc1)C(=O)N2
B4: Example 11 (peptide)
peptide: XCTKSDPPICS
HELM: PEPTIDE1{[O=C([C@@H](N[*:1])C1CCCCC1)[*:2]].C.T.K.S.D.P.P.I.C.S.[dP].P}$PEPTIDE1,PEPTIDE1,2:R3-10:R3|PEPTIDE1,PEPTIDE1,1:R1-13:R2$$$V2.0
SMILES: CC[C@H](C)[C@@H]1NC(=O)[C@@H]2CCCN2C(=O)[C@@H]2CCCN2C(=O)[C@H](CC(=O)O)NC(=O)[C@H](CO)NC(=O)[C@H](CCCCN)NC(=O)[C@H]([C@@H](C)O)NC(=O)[C@@H]2CSSC[C@H](NC1=O)C(=O)N[C@@H](CO)C(=O)N1CCC[C@@H]1C(=O)N1CCC[C@H]1C(=O)N[C@@H](C1CCCCC1)C(=O)N2
B5: Example 8 (peptide)
peptide: RXTKSDPPIXF
HELM: PEPTIDE1{R.[Nle].T.K.S.D.P.P.I.[Nle].F.[dP].P}$PEPTIDE1,PEPTIDE1,1:R1-13:R2$$$V2.0
SMILES: CCCC[C@@H]1NC(=O)[C@H](CCCNC(=N)N)NC(=O)[C@@H]2CCCN2C(=O)[C@H]2CCCN2C(=O)[C@H](Cc2ccccc2)NC(=O)[C@H](CCCC)NC(=O)[C@H]([C@@H](C)CC)NC(=O)[C@@H]2CCCN2C(=O)[C@@H]2CCCN2C(=O)[C@H](CC(=O)O)NC(=O)[C@H](CO)NC(=O)[C@H](CCCCN)NC(=O)[C@H]([C@@H](C)O)NC1=O
B6: Example 25 (peptide)
peptide: FCTKXDPPICS
HELM: PEPTIDE1{F.C.T.K.[NC[C@H](N[*:1])C(=O)[*:2]].D.P.P.I.C.S.[dP].P}$PEPTIDE1,PEPTIDE1,2:R3-10:R3|PEPTIDE1,PEPTIDE1,1:R1-13:R2$$$V2.0
SMILES: CC[C@H](C)[C@@H]1NC(=O)[C@@H]2CCCN2C(=O)[C@@H]2CCCN2C(=O)[C@H](CC(=O)O)NC(=O)[C@H](CN)NC(=O)[C@H](CCCCN)NC(=O)[C@H]([C@@H](C)O)NC(=O)[C@@H]2CSSC[C@H](NC1=O)C(=O)N[C@@H](CO)C(=O)N1CCC[C@@H]1C(=O)N1CCC[C@H]1C(=O)N[C@@H](Cc1ccccc1)C(=O)N2
B7: Example 15 (peptide)
peptide: FCTKSDPPXCS
HELM: PEPTIDE1{F.C.T.K.S.D.P.P.[Nle].C.S.[dP].P}$PEPTIDE1,PEPTIDE1,2:R3-10:R3|PEPTIDE1,PEPTIDE1,1:R1-13:R2$$$V2.0
SMILES: CCCC[C@@H]1NC(=O)[C@@H]2CCCN2C(=O)[C@@H]2CCCN2C(=O)[C@H](CC(=O)O)NC(=O)[C@H](CO)NC(=O)[C@H](CCCCN)NC(=O)[C@H]([C@@H](C)O)NC(=O)[C@@H]2CSSC[C@H](NC1=O)C(=O)N[C@@H](CO)C(=O)N1CCC[C@@H]1C(=O)N1CCC[C@H]1C(=O)N[C@@H](Cc1ccccc1)C(=O)N2
B8: Example 21 (peptide)
peptide: FCTKSEPPICS
HELM: PEPTIDE1{F.C.T.K.S.E.P.P.I.C.S.[dP].P}$PEPTIDE1,PEPTIDE1,2:R3-10:R3|PEPTIDE1,PEPTIDE1,1:R1-13:R2$$$V2.0
SMILES: CC[C@H](C)[C@@H]1NC(=O)[C@@H]2CCCN2C(=O)[C@@H]2CCCN2C(=O)[C@H](CCC(=O)O)NC(=O)[C@H](CO)NC(=O)[C@H](CCCCN)NC(=O)[C@H]([C@@H](C)O)NC(=O)[C@@H]2CSSC[C@H](NC1=O)C(=O)N[C@@H](CO)C(=O)N1CCC[C@@H]1C(=O)N1CCC[C@H]1C(=O)N[C@@H](Cc1ccccc1)C(=O)N2
B9: Example 50 (peptide)
peptide: FCTKSDPPICS
HELM: PEPTIDE1{F.C.T.K.S.D.P.P.I.C.S.[dI].P}$PEPTIDE1,PEPTIDE1,2:R3-10:R3|PEPTIDE1,PEPTIDE1,1:R1-13:R2$$$V2.0
SMILES: CC[C@@H](C)[C@H]1NC(=O)[C@H](CO)NC(=O)[C@@H]2CSSC[C@H](NC(=O)[C@H](Cc3ccccc3)NC(=O)[C@@H]3CCCN3C1=O)C(=O)N[C@@H]([C@@H](C)O)C(=O)N[C@@H](CCCCN)C(=O)N[C@@H](CO)C(=O)N[C@@H](CC(=O)O)C(=O)N1CCC[C@H]1C(=O)N1CCC[C@H]1C(=O)N[C@@H]([C@@H](C)CC)C(=O)N2
B10: Example 73 (peptide)
peptide: FCTKSDPPICS
HELM: PEPTIDE1{F.C.T.K.S.D.P.P.I.C.S.[dI].P}$PEPTIDE1,PEPTIDE1,2:R3-10:R3|PEPTIDE1,PEPTIDE1,1:R1-13:R2$$$V2.0
SMILES: CC[C@@H](C)[C@H]1NC(=O)[C@H](CO)NC(=O)[C@@H]2CSSC[C@H](NC(=O)[C@H](Cc3ccccc3)NC(=O)[C@@H]3CCCN3C1=O)C(=O)N[C@@H]([C@@H](C)O)C(=O)N[C@@H](CCCCN)C(=O)N[C@@H](CO)C(=O)N[C@@H](CC(=O)O)C(=O)N1CCC[C@H]1C(=O)N1CCC[C@H]1C(=O)N[C@@H]([C@@H](C)CC)C(=O)N2

target: T1, Chymase, from human skin; experiment: cell-based or functional assay

| Binder | % inhibition at 100 µM |
| --- | --- |
| B1 | 9.4% |
| B2 | 19.9% |
| B3 | 12.7% |
| B4 | 12.1% |
| B5 | 71.7% |
| B6 | 10% |
| B7 | 12.7% |
| B8 | 5% |

target: Trypsin, Iodination grade, from human pancreas (human, UniProt P07477 24-247); experiment: cell-based or functional assay

| Binder | % inhibition at 100 µM |
| --- | --- |
| B1 | 89.9% |
| B9 | 94% |
| B2 | 95% |
| B3 | 95% |
| B4 | 6.5% |
| B5 | 74.2% |
| B6 | 89.3% |
| B7 | 95% |
| cyclo(FCTKSDPPICS[dP][Pro(5R-Ph)]) (disulfide 2-10) [Example 48] | 93% |
| B8 | 95.6% |
| B10 | 94% |

target: T2, Elastase from human neutrophils; experiment: cell-based or functional assay

| Binder | % inhibition at 100 µM | IC50 |
| --- | --- | --- |
| B1 | 0.3% |  |
| B9 |  | > 100000 nmol |
| B2 | 8.2% |  |
| B3 |  | > 100000 nmol |
| B4 | 19% |  |
| B5 | 0.8% |  |
| B6 | 3.2% |  |
| B7 |  | > 100000 nmol |
| cyclo(FCTKSDPPICS[dP][Pro(5R-Ph)]) (disulfide 2-10) [Example 48] |  | > 100000 nmol |
| B8 |  | 16.4 nmol |
| B10 |  | > 100000 nmol |

target: T3, CathepsinG, from human neutrophils; experiment: cell-based or functional assay

| Binder | IC50 |
| --- | --- |
| B1 | 75 nmol |
| B9 | 89 nmol |
| B2 | 100 nmol |
| B3 | 56 nmol |
| B4 | 95 nmol |
| B5 | 126 nmol |
| B6 | 102 nmol |
| B7 | 56 nmol |
| cyclo(FCTKSDPPICS[dP][Pro(5R-Ph)]) (disulfide 2-10) [Example 48] | 83 nmol |
| B8 | 97 nmol |
| B10 | 89 nmol |

target: Chymotrypsin, from human pancreas (human, UniProt P17538 19-263); experiment: cell-based or functional assay
Sequence (P17538 19-263): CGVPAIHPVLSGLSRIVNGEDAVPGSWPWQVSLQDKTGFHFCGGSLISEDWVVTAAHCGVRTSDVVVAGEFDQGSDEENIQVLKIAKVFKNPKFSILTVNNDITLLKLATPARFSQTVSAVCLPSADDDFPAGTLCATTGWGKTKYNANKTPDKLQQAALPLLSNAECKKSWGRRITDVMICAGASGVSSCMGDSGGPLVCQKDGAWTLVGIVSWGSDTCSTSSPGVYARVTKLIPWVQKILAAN

| Binder | % inhibition at 100 µM |
| --- | --- |
| B9 | 0% |
| B4 | 73.6% |
| B5 | 5.6% |
| cyclo(FCTKSDPPICS[dP][Pro(5R-Ph)]) (disulfide 2-10) [Example 48] | 3% |
| B8 | 2.6% |
| B10 | 0% |
